From patent US20080125498A1, “TREATMENT OF NEURODEGENERATIVE DISEASES AND CONDITIONS USING PAR1 ANTAGONISTS” (priority 2001, published 2008)

Columns and labels:
Assay in all cases: cell-based or functional assay
[1] = biological target: recombinant NR1 subunit in NR1/NR2A and NR1/NR2B NMDA receptors expressed in Xenopus oocytes
[2] = biological target: protease-activated receptor 1 (PAR1), rat, endogenous in hippocampal neurons (rat) (UniProt P26824)
alpha-thrombin = biological target: alpha-thrombin

Chain of protease-activated receptor 1 (PAR1), rat, endogenous in hippocampal neurons (rat) (P26824 46-432): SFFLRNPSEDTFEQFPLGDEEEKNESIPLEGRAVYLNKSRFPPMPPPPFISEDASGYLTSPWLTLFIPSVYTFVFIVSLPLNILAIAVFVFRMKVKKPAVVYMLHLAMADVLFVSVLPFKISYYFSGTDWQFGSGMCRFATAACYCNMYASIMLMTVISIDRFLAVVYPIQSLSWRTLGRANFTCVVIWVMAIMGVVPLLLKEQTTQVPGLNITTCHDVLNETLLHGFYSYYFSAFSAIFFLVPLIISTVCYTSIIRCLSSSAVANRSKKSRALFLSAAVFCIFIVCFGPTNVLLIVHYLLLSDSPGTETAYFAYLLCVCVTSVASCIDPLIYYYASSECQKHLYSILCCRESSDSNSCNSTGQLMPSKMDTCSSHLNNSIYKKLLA

| NMDA receptor current response amplitude in oocytes after 300-1000 nM thrombin for 60 minutes [1] | average peak potentiation of NMDA responses in CA1 pyramidal cells at -40 mV in 1.4 mM Mg2+ [2] | average peak potentiation of NMDA responses in CA1 pyramidal cells at -70 mV in 1.4 mM Mg2+ [2] | peak potentiation of NMDA responses at -70 mV in CA1 pyramidal neurons [2] | potentiation by thrombin of NMDA responses in the presence of hirudin (alpha-thrombin) | Substance |
| --- | --- | --- | --- | --- | --- |
| 42% | 1.48 fold | 2.1 fold | 2.07 fold | – | alpha-thrombin (enzyme) |
| – | – | – | – | 0.96 fold | hirudin |
